Data taken from the supplement of paper PMC10567573.

B1: TRIM55 (parent)
chain: YKSFSKEQQTMDNLEKQLICPICL
B2: TRIM55 (parent)
chain: ICPICLEMFTKPVVILPCQHNLCR

Variants of: B1
Test: protein stability index of a GFP-peptide fusion (GPS, HEK-293T) (PSI 1-6); higher = more stable
Conditions: c terminus: a fixed tail appended
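Also: lentivirally expressed fusions sorted by FACS into six bins by GFP to DsRed ratio, PSI derived from sequencing read proportions per bin multiplied by bin number.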

Protein stability index of substitutions, site by site:
T10: A 1.74 | N 2.26 | D 2.08 | K 2.54 | S 2.46 | L 2.18 | G 2.27 | F 1.29 | R 2.03 | W 1.77 | Q 2.31 | C 2.82 | V 2.04 | P 2.53 | H 2.03 | Y 1.92 | E 2.33 | I 1.65 | M 1.9
Q9: F 1.79 | P 2.16 | Y 2.7 | T 1.57 | A 2.25 | G 2.39 | M 2.17 | H 1.98 | W 1.67 | S 1.75 | N 2.22 | D 2.8 | V 1.76 | L 1.87 | I 1.79 | E 2.08 | R 2.5 | C 2.15 | K 2.15
N13: Y 1.83 | V 1.68 | Q 2.53 | E 1.87 | M 1.69 | A 1.57 | K 2.09 | R 1.79 | T 2.81 | I 1.77 | H 1.95 | P 2.03 | G 2.35 | S 1.91 | L 2.82 | C 2.02 | F 2.34 | W 2.05 | D 2.77
L18: T 2.54 | F 2.55 | R 3.17 | I 2.31 | E 3.19 | W 1.95 | K 2.48 | V 3.42 | D 2.98 | Q 2.08 | Y 2.18 | S 2.49 | P 2.87 | H 2.75 | C 3.72 | A 2.81 | M 2.62 | G 2.84 | N 2.96
E15: A 2.79 | N 2.33 | H 2.27 | P 2.51 | G 2.41 | R 2.12 | L 1.05 | V 1.27 | C 2.72 | F 2.1 | W 1.45 | K 2.09 | Q 2.58 | T 2.9 | S 1.79 | M 2.55 | D 2.13
L14: A 3.03 | K 2.58 | M 2.53 | T 3.03 | N 2.73 | P 2.7 | S 2.8 | E 3.2 | Q 3.27 | V 2.23 | W 2.81 | C 2.51 | R 2.58 | F 1.88 | I 2.06 | H 2.13 | D 2.53 | Y 1.98 | G 2.6
I19: S 2.37 | P 2.29 | T 2.76 | V 2.06 | L 1.96 | R 2.63 | E 3.01 | A 1.99 | W 1.51 | F 2.09 | N 2.71 | Y 2.02 | K 2.55 | M 1.88 | H 2.25 | Q 2.81 | G 2.8 | D 2.56
Q17: F 2.59 | H 2.23 | D 2.76 | I 1.65 | Y 2.02 | M 1.48 | T 1.98 | A 1.79 | N 1.89 | G 2.16 | C 2.12 | R 2.22 | L 2 | W 2.31 | V 2.01 | P 1.68 | K 2.32 | E 2.32 | S 1.72
M11: L 2.3 | K 2.54 | G 2.22 | I 1.83 | N 3.68 | R 2.77 | V 2.68 | Q 2.69 | H 1.82 | T 2.12 | F 2.24 | E 2.69 | S 2.29 | C 2.47 | A 2.74 | Y 2.1 | D 2.68 | P 2.66 | W 1.55
C23: P 1.86 | G 2.67 | M 1.66 | L 1.72 | W 1.65 | F 2.04 | V 1.7 | A 2.29 | N 3.15 | K 3.13 | I 1.93 | S 2.6 | T 2 | H 2.19 | Q 3.13 | D 3.64 | Y 2.04 | E 2.85 | R 2.37
D12: P 2.43 | I 1.93 | A 2.04 | S 1.93 | V 1.89 | H 1.93 | R 1.93 | Q 2.1 | G 2.56 | F 2.68 | L 2.14 | Y 2.57 | W 2.11 | T 2.42 | N 2.37 | C 2.17 | M 2.26 | E 2.59 | K 2.98
P21: L 1.67 | Q 2.4 | G 2.21 | V 2.08 | T 1.77 | Y 3.21 | A 1.66 | D 1.07 | N 1.24 | S 3.16 | K 2.07 | R 1.35 | W 2.53 | F 1.74
L24: E 2.13 | P 3.03 | Q 2.22 | N 2.46 | A 1.92 | W 2.37 | S 2.13 | H 2.5 | Y 2.88 | F 2.15 | T 1.98 | K 2.63 | I 2.7 | D 2 | R 2.31 | C 2.07 | M 2.33 | G 2.46
I22: M 2.31 | A 2.23 | Q 2.03 | N 3.48 | K 2.9 | E 2.93 | V 1.96 | L 2.18 | S 2.75 | T 2.55 | G 2.9 | C 2.66 | R 3.81 | H 2.15 | P 2.7 | F 2.21 | Y 2.55 | D 2.78
C20: G 2.52 | H 2.27 | K 1.88 | P 2.86 | S 2.4 | T 2.44 | W 1.85 | I 1.62 | N 2.42 | D 2.51 | L 2.29 | E 3.21 | F 2.22 | A 1.54 | R 2.11 | V 1.78 | Y 2.03 | M 1.82 | Q 2.05
K16: D 2.33 | E 1.68 | Q 1.83 | S 1.81 | N 2.07 | C 1.82 | Y 1.67 | T 2.23 | V 1.76 | L 1.68 | W 1.88 | A 1.8 | F 2.14 | G 2.08 | H 2.89 | R 2.03 | M 2.15 | I 1.42 | P 2.57
Q8: S 2.29 | C 1.96 | F 1.54 | H 2.37 | G 2.83 | P 2 | R 1.72 | E 2.3 | T 2.17 | V 2.09 | D 2.07 | N 2.18 | L 1.75 | K 1.8 | W 1.66 | M 1.96 | Y 2 | I 2.1

Variants of: B2
Test: as above
Conditions: c terminus: a fixed tail appended

Protein stability index, by site and new letter:
I1: H 2.62 | F 2.58 | D 2.75 | A 2.56 | R 2.75 | L 2.72 | T 2.51 | C 2.36 | G 2.46 | P 2.19 | K 2.75 | Y 1.92 | N 2.55 | Q 3.01 | M 2.44 | E 2.85 | W 2.59 | S 2.72 | V 2.4
C2: D 1.96 | E 2.05 | A 2.31
